Measurements published in patent US20100120118A1.

System: purified MrpC

Substance: N-terminal histidine-tagged MazF-mx (H-MazF)
- gel-shift assay of MrpC on the mazF-mx promoter (PmazF) after preincubation with H-MazF: Binding of MrpC to the promoter region was found to be inhibited when MrpC was preincubated with MazF-mx
